Measurements: IntAct's records for PubMed 12615979

B1: Serine/threonine-protein kinase plo1 (Schizosaccharomyces pombe (strain ATCC 38366 / 972)), P50528 (parent)
chain: MASVAIKEPKTAITPKKKSKASRLCFTPPTNLHNNKKNIFYTRYDCIGEGGFARCFRVKDNYGNIYAAKVIAKRSLQNDKTKLKLFGEIKVHQSMSHPNIVGFIDCFEDSTNIYLILELCEHKSLMELLRKRKQLTEPEVRYLMMQILGALKYMHKKRVIHRDLKLGNIMLDESNNVKIGDFGLAALLMDDEERKMTICGTPNYIAPEILFNSKEGHSFEVDLWSAGVVMYALLIGKPPFQDKEVKTIYRKIKANSYSFPSNVDISAEAKDLISSLLTHDPSIRPSIDDIVDHEFFHTGYMASTLPDEILHSMPIWPSSQSKSSFQRNLDFVASASGVGFGNSAGVEKNKPYALRTDEVDNDRILPSVLSPRDRVNPVMKIGPETKPVPSKLSTALHAARKSTDGSLGSRVKVLREESQSFVPTKSAVTEQVEPIQLIRSLSANTVSRLSKVGNMKSDIWISVKKTALKIGMALEAHTHALTSEDADSEPVLFITKWVDYSNKYGLGYQLSDESVGVHFNDDTSLLFSADEEVVEYALHPKDTEIKPYIYPASKVPESIRSKLQLLKHFKSYMGQNLSKAVQDESFEKPKNSTSNTMLFMQHYLRTRQAIMFRLSNGIFQFNFLDHRKVVISSTARKIIVLDKERERVELPLQEASAFSEDLRSRLKYIRETLESWASKMEVS
partner: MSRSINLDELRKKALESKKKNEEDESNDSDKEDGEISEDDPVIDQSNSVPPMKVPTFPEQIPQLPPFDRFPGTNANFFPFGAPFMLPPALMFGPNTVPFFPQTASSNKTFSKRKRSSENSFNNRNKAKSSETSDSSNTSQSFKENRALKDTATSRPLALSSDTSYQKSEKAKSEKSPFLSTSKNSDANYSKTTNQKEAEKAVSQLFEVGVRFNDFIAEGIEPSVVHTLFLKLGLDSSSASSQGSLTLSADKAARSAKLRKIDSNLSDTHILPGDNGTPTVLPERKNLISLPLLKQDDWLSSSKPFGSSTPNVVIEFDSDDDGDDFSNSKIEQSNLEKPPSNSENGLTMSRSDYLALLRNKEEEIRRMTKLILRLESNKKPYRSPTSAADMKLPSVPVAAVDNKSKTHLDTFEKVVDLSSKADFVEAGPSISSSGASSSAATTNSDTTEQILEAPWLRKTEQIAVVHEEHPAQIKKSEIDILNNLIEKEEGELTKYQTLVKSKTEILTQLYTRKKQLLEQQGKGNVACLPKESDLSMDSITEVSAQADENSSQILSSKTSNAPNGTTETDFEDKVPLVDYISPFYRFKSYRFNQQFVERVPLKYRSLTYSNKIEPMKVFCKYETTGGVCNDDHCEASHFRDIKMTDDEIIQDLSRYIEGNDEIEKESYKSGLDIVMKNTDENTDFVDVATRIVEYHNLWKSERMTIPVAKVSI
B2: Serine/threonine-protein kinase plo1 (Schizosaccharomyces pombe (strain ATCC 38366 / 972)), P50528 (parent)
chain: B1 chain
partner: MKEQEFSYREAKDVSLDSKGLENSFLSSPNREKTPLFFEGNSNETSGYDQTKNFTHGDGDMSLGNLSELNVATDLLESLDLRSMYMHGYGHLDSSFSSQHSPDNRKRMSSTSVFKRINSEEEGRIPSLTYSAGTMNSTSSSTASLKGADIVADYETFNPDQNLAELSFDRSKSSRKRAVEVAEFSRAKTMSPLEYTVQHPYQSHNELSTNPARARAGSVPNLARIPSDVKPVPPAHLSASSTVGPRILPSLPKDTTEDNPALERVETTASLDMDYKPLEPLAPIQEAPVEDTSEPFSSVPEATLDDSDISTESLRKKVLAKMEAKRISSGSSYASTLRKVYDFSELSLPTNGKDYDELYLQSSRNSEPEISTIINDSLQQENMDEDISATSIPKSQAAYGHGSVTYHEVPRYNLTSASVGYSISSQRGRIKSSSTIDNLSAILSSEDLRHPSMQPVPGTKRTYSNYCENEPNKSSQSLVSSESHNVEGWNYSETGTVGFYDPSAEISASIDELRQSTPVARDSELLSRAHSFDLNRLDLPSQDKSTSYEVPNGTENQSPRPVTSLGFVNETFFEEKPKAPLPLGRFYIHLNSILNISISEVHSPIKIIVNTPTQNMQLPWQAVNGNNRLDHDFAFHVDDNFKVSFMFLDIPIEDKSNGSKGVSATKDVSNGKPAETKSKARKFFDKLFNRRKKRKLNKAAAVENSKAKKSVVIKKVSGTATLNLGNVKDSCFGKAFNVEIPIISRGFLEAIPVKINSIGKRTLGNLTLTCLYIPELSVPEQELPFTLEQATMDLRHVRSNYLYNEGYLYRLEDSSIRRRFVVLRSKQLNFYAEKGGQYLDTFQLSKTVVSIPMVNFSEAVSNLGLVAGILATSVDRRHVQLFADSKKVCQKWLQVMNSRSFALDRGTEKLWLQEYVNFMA
B3: Serine/threonine-protein kinase plo1 (Schizosaccharomyces pombe (strain ATCC 38366 / 972)), P50528 (parent)
chain: B1 chain
partner: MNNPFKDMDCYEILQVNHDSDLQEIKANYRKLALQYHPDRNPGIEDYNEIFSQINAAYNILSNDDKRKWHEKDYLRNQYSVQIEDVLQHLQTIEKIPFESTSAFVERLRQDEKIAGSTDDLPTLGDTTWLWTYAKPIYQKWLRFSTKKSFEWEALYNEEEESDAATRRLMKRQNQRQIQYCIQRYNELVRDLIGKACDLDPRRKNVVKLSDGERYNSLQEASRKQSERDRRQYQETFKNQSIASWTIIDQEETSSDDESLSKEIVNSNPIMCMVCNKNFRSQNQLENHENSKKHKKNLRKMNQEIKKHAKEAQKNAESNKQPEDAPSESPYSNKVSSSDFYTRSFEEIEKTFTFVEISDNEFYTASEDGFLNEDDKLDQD
B4: Serine/threonine-protein kinase plo1 (Schizosaccharomyces pombe (strain ATCC 38366 / 972)), P50528 (parent)
chain: B1 chain
partner: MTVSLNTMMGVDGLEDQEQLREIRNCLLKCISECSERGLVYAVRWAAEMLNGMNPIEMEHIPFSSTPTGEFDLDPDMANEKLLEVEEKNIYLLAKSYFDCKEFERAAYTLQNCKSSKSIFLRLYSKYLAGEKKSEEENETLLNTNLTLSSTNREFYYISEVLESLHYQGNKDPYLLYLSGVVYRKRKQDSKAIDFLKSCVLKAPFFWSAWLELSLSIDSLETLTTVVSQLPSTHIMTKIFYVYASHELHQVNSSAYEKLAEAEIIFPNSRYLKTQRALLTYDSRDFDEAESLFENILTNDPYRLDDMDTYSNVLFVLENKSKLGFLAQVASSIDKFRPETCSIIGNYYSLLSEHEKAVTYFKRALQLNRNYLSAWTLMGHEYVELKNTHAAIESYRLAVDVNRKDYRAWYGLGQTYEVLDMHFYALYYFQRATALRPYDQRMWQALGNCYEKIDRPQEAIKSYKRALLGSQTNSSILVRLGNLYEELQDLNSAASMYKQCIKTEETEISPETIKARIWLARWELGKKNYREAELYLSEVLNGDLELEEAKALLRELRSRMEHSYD

Variants of: B1
Conditions: with red1_schpo red1, Q9UTR8
V498A was tested, and the “effect of a mutation on the interaction” value was “decreasing interaction”.

Variants of: B2
Conditions: with bud4_schpo mid1, P78953
With V498A the “effect of a mutation on the interaction” value was “decreasing interaction”.
V533A was tested, and the “effect of a mutation on the interaction” value was “decreasing interaction”.

Variants of: B3
Conditions: with epr1_schpo epr1, O14213
With S256P the “effect of a mutation on the interaction” value was “disrupting interaction”.
With F493L the “effect of a mutation on the interaction” value was “disrupting interaction”.
In the case of K251E, the “effect of a mutation on the interaction” value is reported as “disrupting interaction”.
V498A was tested, and the “effect of a mutation on the interaction” value was “decreasing interaction”.
V533A was tested, and the “effect of a mutation on the interaction” value was “decreasing interaction”.
For I252T, the “effect of a mutation on the interaction” value was “disrupting interaction”.

Variants of: B4
Conditions: with apc8_schpo cut23, O94556
For L565F, the “effect of a mutation on the interaction” value was “decreasing interaction”.
For R605P, the “effect of a mutation on the interaction” value was “decreasing interaction”.
V533A was tested, and the “effect of a mutation on the interaction” value was “decreasing interaction”.
F493L was tested, and the “effect of a mutation on the interaction” value was “decreasing interaction”.
